These results are taken from paper PMC7077851, “Comparative analysis of the human serine hydrolase OVCA2 to the model serine hydrolase homolog FSH1 from S. cerevisiae” (PLoS ONE, 2020).

Common to all, as to assay: purified protein
What all share (format): biochemical, Homo sapiens

Substrate in series [1]: CCCCCCCC(=O)Oc1ccc([N+](=O)[O-])cc1
The following applies: PBS, 0.1 mg/mL acetylated BSA, 1% acetonitrile, 25 °C.

Substrate in series [2]: CCCCCCCCCCCC(=O)Oc1ccc([N+](=O)[O-])cc1
The following applies: PBS, 0.1 mg/mL acetylated BSA, 1% acetonitrile, 25 °C.

Substrate in series [3]: CCCCCCCCCCCCCC(=O)Oc1ccc([N+](=O)[O-])cc1
The following applies: PBS, 0.1 mg/mL acetylated BSA, 1% acetonitrile, 25 °C.

Substrate in series [4]: COCC(=O)OCOc1ccc2c(c1)Oc1cc(OCOC(=O)COC)ccc1C21OC(=O)c2ccccc21
The following applies: PBS, 0.1 mg/mL acetylated BSA, 25 °C.

Substrate in series [5]: CCCCCCCCCC(=O)Oc1ccc([N+](=O)[O-])cc1
The settings on record: PBS, 0.1 mg/mL acetylated BSA, 1% acetonitrile, 25 °C.

Substrate in series [6]: CC(=O)Oc1ccc([N+](=O)[O-])cc1
The following applies: PBS, 0.1 mg/mL acetylated BSA, 1% acetonitrile, 25 °C.

Substrate in series [7]: COCCOCC(=O)OCOc1ccc2c(c1)Oc1cc(OCOC(=O)COCCOC)ccc1C21OC(=O)c2ccccc21
The settings on record: PBS, 0.1 mg/mL acetylated BSA, 25 °C.

Substrate in series [8]: CCCC(=O)Oc1ccc([N+](=O)[O-])cc1
The following applies: PBS, 0.1 mg/mL acetylated BSA, 1% acetonitrile, 25 °C.

B1: OVCA2 (Homo sapiens) (protein)
chain: MAAQRPLRVLCLAGFRQSERGFREKTGALRKALRGRAELVCLSGPHPVPDPPGPEGARSDFGSCPPEEQPRGWWFSEQEADVFSALEEPAVCRGLEESLGMVAQALNRLGPFDGLLGFSQGAALAALVCALGQAGDPRFPLPRFILLVSGFCPRGIGFKESILQRPLSLPSLHVFGDTDKVIPSQESVQLASQFPGAITLTHSGGHFIPAAAPQRQAYLKFLDQFAE
By Km is commonly meant the substrate concentration at which the rate is half of its maximum. The kcat is the number of substrate molecules converted per active site and unit of time at saturation. For orientation: kcat/Km means the second-order rate constant that governs catalysis at low substrate concentration. Turning to B1, the Km came to 6.1 ± 5.7 µM in “purified protein [1]”; 29 ± 19 µM in “purified protein [2]”; 17 ± 14 µM in the series “purified protein [3]”; 12 ± 5 µM in the series “purified protein [4]”; 3.84 ± 1.1 µM in “purified protein [5]”; 1400 ± 600 µM in the series “purified protein [6]”. For the same protein, the Km in the series “purified protein [7]” came to 3.7 ± 0.8 µM; in the series “purified protein [8]”, 2900 ± 100 µM. The kcat is 0.023 ± 0.005 s⁻¹ in “purified protein [1]”; 0.076 ± 0.01 s⁻¹ in “purified protein [2]”; 0.076 ± 0.01 s⁻¹ in “purified protein [3]”; 0.0013 ± 0.0002 s⁻¹ in the series “purified protein [4]”; 0.025 ± 0.001 s⁻¹ in “purified protein [5]”; 0.26 ± 0.03 s⁻¹ in “purified protein [6]”. The catalytic constant (kcat) in the series “purified protein [7]” worked out at 0.0012 ± 0.0001 s⁻¹. The catalytic efficiency (kcat/Km) in the series “purified protein [1]” is 3800 ± 1800 M⁻¹ s⁻¹; in the series “purified protein [2]”, 2700 ± 950 M⁻¹ s⁻¹; in the series “purified protein [3]”, 4500 ± 1800 M⁻¹ s⁻¹; in “purified protein [4]”, 100 ± 40 M⁻¹ s⁻¹; in the series “purified protein [5]” it was 6800 ± 1000 M⁻¹ s⁻¹; in the series “purified protein [6]”, 200 ± 50 M⁻¹ s⁻¹. In addition, the catalytic efficiency (kcat/Km) in “purified protein [7]” came to 330 ± 70 M⁻¹ s⁻¹.

B2: OVCA2 (Homo sapiens; D179A) (protein)
chain: MAAQRPLRVLCLAGFRQSERGFREKTGALRKALRGRAELVCLSGPHPVPDPPGPEGARSDFGSCPPEEQPRGWWFSEQEADVFSALEEPAVCRGLEESLGMVAQALNRLGPFDGLLGFSQGAALAALVCALGQAGDPRFPLPRFILLVSGFCPRGIGFKESILQRPLSLPSLHVFGDTAKVIPSQESVQLASQFPGAITLTHSGGHFIPAAAPQRQAYLKFLDQFAE
In the case of B2, the Michaelis constant (Km) in “purified protein [1]” is 2.0 ± 0.2 µM; in “purified protein [2]” it was 1.1 ± 0.6 µM; in “purified protein [3]” it was 5.7 ± 1.9 µM; in the series “purified protein [5]”, 3.2 ± 1.5 µM. For the same protein, the kcat/Km in the series “purified protein [1]” is 0.5 ± 0.3 M⁻¹ s⁻¹; in “purified protein [2]”, 69 ± 20 M⁻¹ s⁻¹; in “purified protein [3]”, 7.8 ± 1.4 M⁻¹ s⁻¹; in the series “purified protein [5]” it was 11 ± 3 M⁻¹ s⁻¹. Besides, the turnover number (kcat) in the series “purified protein [2]” came to 7.3e-05 ± 8e-06 s⁻¹; in the series “purified protein [3]” it was 4.6e-05 ± 4e-06 s⁻¹; in the series “purified protein [5]” it was 3.7e-05 ± 4e-06 s⁻¹.
